Data set [1] is described as follows: Hydrolysis of compound 28 in the liposome at low pH (thin layer chromatography). The class given is physicochemical. As to conditions: PBS pH 4.5, 37° C., 24 hours, liposome 3/4/3/0.03. The protocol: The prepared liposome (DOPC/chol/(28)/PEG-DPE=3/4/3/0.03, molar ratio) was dispersed in PBS of pH 4.5 at 37° C., and the dispersion was lyophilized 24 hours later. The dried mixed lipid powder was dissolved in chloroform and detected by thin layer chromatography (silica gel plate, chloroform/methanol (8/1) (volume/volume) detection: iodine).

For data set [2] the following is noted: cited from earlier work; for Isoelectric point: Table 2; for Isoelectric point (-): Table 5.

Consider `CCCCCCCCCCCCCCCCOC(=O)CCC(NC(=O)C(N)CCC(=O)O)C(=O)OCCCCCCCCCCCCCCCC` (centres unmarked) [compound 28], for which the “hydrolysis in the liposome at low pH” value in data set [1] was “hydrolyzed”.

With “α-Lactalbumin: model protein, molecular weight 14 kDa”, in data set [2], the Isoelectric point is on record as 4.1-4.8 and the “Isoelectric point (-)” value is reported as 4.1-4.8.

Regarding Ferritin, in data set [2], the Isoelectric point is on record as 4.0-5.0 and the “Isoelectric point (-)” value is listed as 4.0-5.0.

Regarding Thyrogrobulin: model protein, 670 kDa, in data set [2], the Isoelectric point is given as 4.5 and the “Isoelectric point (-)” value is recorded as 4.5.

B1: Catalase (from bovie liver): model protein, 232 kDa (protein, UniProt P00432 2-527, looked up)
Catalase: ADNRDPASDQMKHWKEQRAAQKPDVLTTGGGNPVGDKLNSLTVGPRGPLLVQDVVFTDEMAHFDRERIPERVVHAKGAGAFGYFEVTHDITRYSKAKVFEHIGKRTPIAVRFSTVAGESGSADTVRDPRGFAVKFYTEDGNWDLVGNNTPIFFIRDALLFPSFIHSQKRNPQTHLKDPDMVWDFWSLRPESLHQVSFLFSDRGIPDGHRHMNGYGSHTFKLVNANGEAVYCKFHYKTDQGIKNLSVEDAARLAHEDPDYGLRDLFNAIATGNYPSWTLYIQVMTFSEAEIFPFNPFDLTKVWPHGDYPLIPVGKLVLNRNPVNYFAEVEQLAFDPSNMPPGIEPSPDKMLQGRLFAYPDTHRHRLGPNYLQIPVNCPYRARVANYQRDGPMCMMDNQGGAPNYYPNSFSAPEHQPSALEHRTHFSGDVQRFNSANDDNVTQVRTFYLKVLNEEQRKRLCENIAGHLKDAQLFIQKKAVKNFSDVHPEYGSRIQALLDKYNEEKPKNAVHTYVQHGSHLSAREKANL
On to B1, for which, in data set [2], the “Isoelectric point (-)” value was 5.5.

Values taken from patent US8647613B2, “Drug carrier” (JCR Pharmaceuticals Co., Ltd., priority 2005, dated 2014).
